Patent US20250188151A1, “C-JUN ANTAGONIST PEPTIDES” (The University of Bath, priority 2022, published 2025)

Key:
[1] = target: T1, cJun bZIP (human, UniProt P05412 252-308, limits assumed); experiment: ITC
T1 construct: Purified from a His-SUMO fusion with the tag cleaved off; also called c-Jun bZIP domain; 60 amino acid c-Jun bZIP construct
T1 chain: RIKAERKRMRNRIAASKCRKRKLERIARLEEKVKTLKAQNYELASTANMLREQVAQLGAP

[2] = target: T1, cJun bZIP
[3] = target: T1, cJun bZIP; experiment: CD spectra at 20 °C
[4] = target: cJun (Homo sapiens, UniProt P05412, S292Y); experiment: Isothermal titration calorimetry, Example 1 (MicroCal VP-ITC); type: binding; design: The same 60 amino acid c-Jun bZIP construct was used for all experiments; His-SUMO (N, cleaved yes); made in house; host or cells: E. coli; settings: peptide 10 μM injected into cJun 1 μM, single site model; listed as HingeW
Method: Using a MicroCal VP-ITC instrument (Malvern), 10 μL injections of antagonist peptide (HingeW or A-FosW) at 10 μM were injected into the cell containing cJun at 1 μM. MicroCal Origin software was used to record and analyse the heat change upon addition. Control experiments involved the injection of the antagonist peptide sample into the cell containing ITC buffer alone to determine the heat of dilution which was subtracted. The resulting binding data were fit to a one site binding model to extract the enthalpy change of binding (ΔH) and the equilibrium binding constant (KD), from which the free energy change of binding (ΔG) and the entropy change of binding (AS) was calculated (Wiseman et al., 1989). Thermodynamic parameters are presented as an average of two independent experiments with errors given as one standard deviation.

[5] = target: T1, cJun bZIP; experiment: ITC (PEAQ-ITC), peptide injected into cJun, one site model; Table 7 ITC, run at a lower temperature than the earlier 1/cJun ITC measurement
[6] = target: T2, cJun/TRE DNA interaction (Homo sapiens, UniProt P05412, S292Y); experiment: CD cJun/TRE DNA antagonism (shift of TRE DNA peak at ~281 nm, Hill fit); type: biochemical; settings: HingeW concentrations of 50 and 100 μM
T2 construct: The same 60 amino acid c-Jun bZIP construct was used for all experiments; His-SUMO (N, cleaved yes); made in house; host or cells: E. coli

[7] = target: T1, cJun bZIP; experiment: cell-based or functional assay
[8] = CD spectra and thermal denaturation of peptide-only samples (helicity, homodimer Tm); settings: peptide alone
Method: Circular Dichroism (CD): An Applied Photophysics Chirascan was used for CD measurements, with a 200 μL sample in a 1 mm path length CD cell. Protein/DNA samples were suspended in 150 mM potassium phosphate, 150 mM potassium fluoride and 5 mM TCEP at pH 7.4 and were equilibrated for 30 minutes before measurement. […] These scans were averaged and converted to molar residue ellipticities (MRE). Thermal denaturation experiments were performed by measuring the ellipticity at 222 nm over a 1 to 90° C. gradient at 1° C. increments. Post-melt scans at 20° C. confirmed the transitions were reversible as they overlaid within 10% of the pre-melt scan.
Circular Dichroism (CD): An Applied Photophysics Chirascan was used for CD measurements, with a 200 μL sample in a 1 mm path length CD cell. Protein/DNA samples were suspended in 150 mM potassium phosphate, 150 mM potassium fluoride and 5 mM TCEP at pH 7.4 and were equilibrated for 30minutes before measurement. […] Thermal denaturation experiments were performed by measuring the ellipticity at 222 nm over a 1 to 90° C. gradient at 1° C. increments. Post-melt scans at 20° C. confirmed the transitions were reversible as they overlaid within 10% of the pre-melt scan.
Peptide helicity was determined by quantifying the CD signal at 222 nm of peptide only samples. Thermal denaturation experiments were then used to determine the Tm of peptide-c-Jun heterodimers, which was used as an approximate measure of target engagement. […] The same 60 amino acid c-Jun bZIP construct was used for all experiments, regardless of antagonist peptide length.

B1: HingeW (peptide)
peptide: MASLEQRAEELARENEELEKEAEELVVEEDVLEEEIEQLEERNYALRKEIEDLQKQLEKLGAPHHHHHH
notes: Recombinant, capped (MAS at the N-terminus, GAP at the C-terminus) and C-terminally 6xHis-tagged, 69 amino acids; also called peptide 1
- fold increase in binding affinity against A-FosW [1]: 6 fold
- ΔTm from component average (CD) [2]: ~40 ° C.
- increase in α-helical content relative to the average of the two component spectra [3]: 82%
- Kd [4]: 14 nM
- Kd [5]: 0.21 nM
- antagonism of the cJun/TRE interaction [6]: complete antagonism
- IC50 CD [7]: 13400 nM
- Fraction helicity at 20° C. (CD) [8]: 27.2%
- helicity in isolation, less helical relative to A-FosW [8]: 12.9%
